According to PMC6566107, “Molecular Analysis of Protein-Protein Interactions in the Ethylene Pathway in the Different Ethylene Receptor Subfamilies” (Frontiers in Plant Science, 2019):
Values joined by “and” are separate entries in the source; they are usually repeats but may differ in a detail not shown here. Equal entries are not always repeated.

T1: Arabidopsis thaliana EIN2 C-terminus (AtEIN2 479-1294), soluble cytosolic domain (Arabidopsis thaliana, UniProt Q9S814 479-1294, Alexa Fluor 488 succinimidyl-ester label where used as the labeled partner in MST)
T1 construct: source: recombinant, expressed and purified as previously described (Bisson et al., 2016)
T1 sequence (looked up): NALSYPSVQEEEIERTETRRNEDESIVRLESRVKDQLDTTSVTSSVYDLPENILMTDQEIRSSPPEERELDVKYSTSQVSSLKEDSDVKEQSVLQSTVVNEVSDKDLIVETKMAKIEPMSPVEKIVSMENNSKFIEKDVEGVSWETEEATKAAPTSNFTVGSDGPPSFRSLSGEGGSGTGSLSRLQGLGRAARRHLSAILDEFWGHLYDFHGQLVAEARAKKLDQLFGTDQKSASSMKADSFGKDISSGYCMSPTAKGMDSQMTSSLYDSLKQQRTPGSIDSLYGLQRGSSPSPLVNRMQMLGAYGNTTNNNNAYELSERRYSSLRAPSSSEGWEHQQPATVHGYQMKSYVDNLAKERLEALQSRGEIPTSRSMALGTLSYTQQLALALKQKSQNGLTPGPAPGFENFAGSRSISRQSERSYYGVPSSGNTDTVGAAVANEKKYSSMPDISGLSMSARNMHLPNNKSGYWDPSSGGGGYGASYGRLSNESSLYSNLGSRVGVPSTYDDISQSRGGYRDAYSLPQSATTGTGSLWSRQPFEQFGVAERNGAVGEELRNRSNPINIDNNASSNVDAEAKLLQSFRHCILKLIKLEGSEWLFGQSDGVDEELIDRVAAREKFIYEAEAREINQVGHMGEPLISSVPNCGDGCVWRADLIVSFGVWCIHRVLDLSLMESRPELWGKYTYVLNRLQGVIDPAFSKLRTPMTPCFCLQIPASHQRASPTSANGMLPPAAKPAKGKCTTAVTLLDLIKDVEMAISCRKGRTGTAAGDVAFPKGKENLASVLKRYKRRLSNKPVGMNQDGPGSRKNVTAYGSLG

T2: Arabidopsis thaliana Raf-like protein kinase CTR1 (AtCTR1), full-length, fused to mCerulean (Arabidopsis thaliana, UniProt Q05609 1-821, Alexa Fluor 488 succinimidyl-ester label)
T2 construct: CONSTITUTIVE TRIPLE RESPONSE 1 (CTR1), Arabidopsis thaliana, UniProt Q05609, full-length cDNA according to NCBI NM_120454.4; The CTR1 coding region was extended by mCerulean in pET30a; source: E. coli BL21 (DE3) with pRARE, purified (Ni-NTA)
T2 sequence (looked up): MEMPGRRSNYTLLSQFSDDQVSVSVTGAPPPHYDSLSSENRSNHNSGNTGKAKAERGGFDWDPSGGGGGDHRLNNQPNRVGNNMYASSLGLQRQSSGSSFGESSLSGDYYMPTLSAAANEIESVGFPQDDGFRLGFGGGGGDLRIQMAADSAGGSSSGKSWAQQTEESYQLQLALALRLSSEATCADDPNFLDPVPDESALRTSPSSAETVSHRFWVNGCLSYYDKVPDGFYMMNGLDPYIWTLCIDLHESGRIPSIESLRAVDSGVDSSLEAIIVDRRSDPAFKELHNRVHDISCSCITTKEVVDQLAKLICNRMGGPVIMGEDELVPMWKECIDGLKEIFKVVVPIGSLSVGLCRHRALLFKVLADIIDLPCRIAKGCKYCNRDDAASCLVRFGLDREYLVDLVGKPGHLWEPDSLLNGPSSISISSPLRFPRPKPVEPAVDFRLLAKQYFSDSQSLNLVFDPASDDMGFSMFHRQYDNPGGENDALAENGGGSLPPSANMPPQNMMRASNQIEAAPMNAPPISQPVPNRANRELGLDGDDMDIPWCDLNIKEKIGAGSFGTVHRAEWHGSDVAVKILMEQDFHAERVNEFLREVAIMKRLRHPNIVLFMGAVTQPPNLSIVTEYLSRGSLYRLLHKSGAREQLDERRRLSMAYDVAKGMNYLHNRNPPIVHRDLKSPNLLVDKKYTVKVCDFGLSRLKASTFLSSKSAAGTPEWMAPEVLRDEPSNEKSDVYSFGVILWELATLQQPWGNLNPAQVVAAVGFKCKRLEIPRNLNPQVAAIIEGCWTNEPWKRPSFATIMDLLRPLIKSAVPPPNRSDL

T3: Isolated transmembrane domain of AtETR1 (aa 1-157) with C4S and C6S (Arabidopsis thaliana, UniProt P49333 1-157, C4S | C6S)
T3 sequence: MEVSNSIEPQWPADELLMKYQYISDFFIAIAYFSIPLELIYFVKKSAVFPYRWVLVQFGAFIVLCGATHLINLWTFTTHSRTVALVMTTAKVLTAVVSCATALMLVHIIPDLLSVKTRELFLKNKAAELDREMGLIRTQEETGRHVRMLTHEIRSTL

B1: Arabidopsis thaliana ethylene receptor ETR2 (AtETR2), full-length, type-II subfamily (receptor, UniProt Q0WPQ2 1-773, looked up)
chain: MVKEIASWLLILSMVVFVSPVLAINGGGYPRCNCEDEGNSFWSTENILETQRVSDFLIAVAYFSIPIELLYFVSCSNVPFKWVLFEFIAFIVLCGMTHLLHGWTYSAHPFRLMMAFTVFKMLTALVSCATAITLITLIPLLLKVKVREFMLKKKAHELGREVGLILIKKETGFHVRMLTQEIRKSLDRHTILYTTLVELSKTLGLQNCAVWMPNDGGTEMDLTHELRGRGGYGGCSVSMEDLDVVRIRESDEVNVLSVDSSIARASGGGGDVSEIGAVAAIRMPMLRVSDFNGELSYAILVCVLPGGTPRDWTYQEIEIVKVVADQVTVALDHAAVLEESQLMREKLAEQNRALQMAKRDALRASQARNAFQKTMSEGMRRPMHSILGLLSMIQDEKLSDEQKMIVDTMVKTGNVMSNLVGDSMDVPDGRFGTEMKPFSLHRTIHEAACMARCLCLCNGIRFLVDAEKSLPDNVVGDERRVFQVILHIVGSLVKPRKRQEGSSLMFKVLKERGSLDRSDHRWAAWRSPASSADGDVYIRFEMNVENDDSSSQSFASVSSRDQEVGDVRFSGGYGLGQDLSFGVCKKVVQLIHGNISVVPGSDGSPETMSLLLRFRRRPSISVHGSSESPAPDHHAHPHSNSLLRGLQVLLVDTNDSNRAVTRKLLEKLGCDVTAVSSGFDCLTAIAPGSSSPSTSFQVVVLDLQMAEMDGYEVAMRIRSRSWPLIVATTVSLDEEMWDKCAQIGINGVVRKPVVLRAMESELRRVLLQADQLL
modifications: Alexa Fluor 488 succinimidyl-ester label where used as the labeled partner in MST
notes: ETR2, Arabidopsis thaliana, UniProt Q0WPQ2, full-length, codon optimized cDNA according to NCBI NM_113216.3; The thrombin site of pGEX-4T-1 was changed to a TEV site (ENLYFQG); No cleavage is described; The purified protein runs at an apparent 120 kDa, so GST is probably still attached; The same construct was used with and without the Alexa Fluor 488 label; source: E. coli C43 (DE3), solubilised …
B2: Arabidopsis thaliana ethylene receptor ETR1 (AtETR1), full-length, type-I subfamily (receptor, UniProt P49333 1-738, looked up)
chain: MEVCNCIEPQWPADELLMKYQYISDFFIAIAYFSIPLELIYFVKKSAVFPYRWVLVQFGAFIVLCGATHLINLWTFTTHSRTVALVMTTAKVLTAVVSCATALMLVHIIPDLLSVKTRELFLKNKAAELDREMGLIRTQEETGRHVRMLTHEIRSTLDRHTILKTTLVELGRTLALEECALWMPTRTGLELQLSYTLRHQHPVEYTVPIQLPVINQVFGTSRAVKISPNSPVARLRPVSGKYMLGEVVAVRVPLLHLSNFQINDWPELSTKRYALMVLMLPSDSARQWHVHELELVEVVADQVAVALSHAAILEESMRARDLLMEQNVALDLARREAETAIRARNDFLAVMNHEMRTPMHAIIALSSLLQETELTPEQRLMVETILKSSNLLATLMNDVLDLSRLEDGSLQLELGTFNLHTLFREVLNLIKPIAVVKKLPITLNLAPDLPEFVVGDEKRLMQIILNIVGNAVKFSKQGSISVTALVTKSDTRAADFFVVPTGSHFYLRVKVKDSGAGINPQDIPKIFTKFAQTQSLATRSSGGSGLGLAISKRFVNLMEGNIWIESDGLGKGCTAIFDVKLGISERSNESKQSGIPKVPAIPRHSNFTGLKVLVMDENGVSRMVTKGLLVHLGCEVTTVSSNEECLRVVSHEHKVVFMDVCMPGVENYQIALRIHEKFTKQRHQRPLLVALSGNTDKSTKEKCMSFGLDGVLLKPVSLDNIRDVLSDLLEPRVLYEGM
modifications: Alexa Fluor 488 succinimidyl-ester label where used as the labeled partner in MST
notes: ETR1, Arabidopsis thaliana, full-length receptor; source: recombinant, expressed and purified as described in Milić et al., 2018, in FosCholine-16

Legend:
[1] = molecular target: T1, Arabidopsis thaliana EIN2 C-terminus …; assay: MST; 75 nM Alexa Fluor 488-labeled AtEIN2 479-1294; unlabeled AtETR2 titrated 4 µM to 1.95 nM; ambient temperature; 60% MST power; 1:1 model; apparent Kd; conditions: both partners purified
[2] = molecular target: T2, Arabidopsis thaliana Raf-like protein …; assay: MST; Alexa Fluor 488-labeled AtCTR1 (MST buffer 3; 50 nM with AtETR1, 20 nM with AtETR2); unlabeled receptors (MST buffer 2) titrated 4 µM to 0.98 nM; 60% MST power; premium capillaries and 10 min incubation for AtETR2; 1:1 model; conditions: both partners purified
[3] = molecular target: T3, Isolated transmembrane domain of AtETR1 …; assay: MST; ETR2 Alexa488-labeled
[4] = molecular target: T1, Arabidopsis thaliana EIN2 C-terminus …; assay: MST; 20 nM Alexa Fluor 488-labeled AtETR2 (MST buffer 1: 50 mM HEPES/NaOH pH 7.8, 300 mM NaCl, 5% glycerol, 0.015% FosCholine-16); unlabeled AtEIN2 479-1294 (MST buffer 3) titrated 2 µM to 0.98 nM; 20% MST power; 1:1 model; apparent Kd; conditions: both partners purified
[5] = molecular target: the molecule itself; assay: MST; 40 nM Alexa Fluor 488-labeled receptor (AtETR1 or AtETR2); unlabeled AtETR1 or AtETR2 (4 µM to 0.49 nM) or ETR1-TM C4SC6S (16 µM to 0.98 nM) titrated; 0.0075% (w/v) FosCholine-16; 60% MST power; 1:1 model
[6] = molecular target: T3, Isolated transmembrane domain of AtETR1 …; assay: MST; ETR1 Alexa488-labeled
[7] = molecular target: B1; assay: MST; 40 nM Alexa Fluor 488-labeled receptor (AtETR1 or AtETR2); unlabeled AtETR1 or AtETR2 (4 µM to 0.49 nM) or ETR1-TM C4SC6S (16 µM to 0.98 nM) titrated; 0.0075% (w/v) FosCholine-16; 60% MST power; 1:1 model; conditions: both partners purified

Kd [1]	Kd [2]	Kd [3]	Kd [4]	Kd [6]	Kd [7]	Binder	Kd [5]
147 nM	165 nM	145 nM	161 nM			B1	96 nM
	169 nM			491 nM	177 nM and 217 nM	B2	326 nM
